The text below walks through data of patent US11191811B2, “Osteocalcin as a treatment for frailty associated with aging” (THE TRUSTEES OF COLUMBIA UNIVERSITY IN THE CITY OF NEW YORK, priority 2014, dated 2021).

This data set is described as follows: Circulating osteocalcin and insulin levels after osteocalcin delivery (ELISA). The format is in vivo, mouse. The method, then: First, whether a single intraperitoneal injection of uncarboxylated mouse osteocalcin (osteocalcin) (100 ng/g of body weight) immediately before exercise would improve the exercise capacity of 3 month-old WT mice was tested.
To determine if osteocalcin has the same ability in older mice, 12 and 15 month-old mice that have low circulating osteocalcin levels were injected prior to running with 500 ng/g of body weight of osteocalcin in order to raise their circulating levels substantially. […] This was due to an increase in the phosphorylation of Akt, AMPK and HSL, as well as in glucose uptake, that occurred to a greater extent in oxidative muscles that express Gprc6a at the highest level, than in glycolytic muscles (FIG. 31C-F). Whether chronic delivery of osteocalcin through mini-pumps (90 ng/hour) for 28 days would increase muscle function in 9 month old mice that have the lowest circulating osteocalcin levels was also tested. […] This improved ability to perform exercise was caused in part by an increase in the expression in muscle of the fatty acid transporter Fatp1 and an activation of the Akt pathway (FIG. 31H-).
Serum osteocalcin, PINP, CTX, and insulin levels were measured using ELISA assays. Blood glucose level was measured using an Accu-Check glucometer. Urine 3-MHT was measured as previously described (Aranibar et al., 2011, Anal. Biochem. 410:84-91). […]
Background: ELISA stands for enzyme-linked immunosorbent assay.

Take “uncarboxylated osteocalcin: Recombinant uncarboxylated mouse osteocalcin, bacterially produced, purified on glutathione beads and cleaved from the GST subunit by thrombin (YLGASVPSPDPLEPTREQCELNPACDELSDQYGLKTAYKRIYGITI)”: the circulating osteocalcin levels entry is reported as “increased” (3 month-old WT mice, single i.p. injection 100 ng/g) and “increased” (mini-pumps 90 ng/hour for 28 days, 9 month old mice).
